B1: SepF [B. subtilis] / Halo-ZC (HaloTag fused to the final 69 amino acids of B. subtilis FtsZ) [B. subtilis] (parent complex)
chain 1: MSMKNKLKNFFSMEDEEYEYEYIETERESHEEHEQKEKPAYNGNKPAGKQNVVSLQSVQKSSKVVLSEPRVYAEAQEIADHLKNRRAVVVNLQRIQHDQAKRIVDFLSGTVYAIGGDIQRIGSDIFLCTPDNVDVSGTISELISEDEHQRW
chain 2: GFIEQEKDVTKPQRPSLNQSIKTHNQSVPKREPKREEPQQQNTVSRHTSQPADDTLDIPTFLRNRNKRG

Variants of: B1
Assay: pull-down (HaloTag bait), densitometric scanning of Coomassie-stained gels; read off a plot

| screen value | Variant |
| --- | --- |
| ~0.83 | chain 2 GFIEQEKDVTKPQRPSLNQSIKTHNQSVPKREPKREEPQQQNTVSRHTSQPADDALDIPTFLRNRNKRG [chain 2 T55A] |
| ~0.9 | chain 2 GFIEQEKDVTKPQRPSLNQSIKTHNQSVPKREPKREEPQQQNTVSRHTSQPADATLDIPTFLRNRNKRG [chain 2 D54A] |
| ~0.03 | chain 2 GFIEQEKDVTKPQRPSLNQSIKTHNQSVPKREPKREEPQQQNTVSRHTSQPADDTLDIPTALRNRNKRG [chain 2 F61A] |
| ~0.04 | chain 2 GFIEQEKDVTKPQRPSLNQSIKTHNQSVPKREPKREEPQQQNTVSRHTSQPADDTLDIATFLRNRNKRG [chain 2 P59A] |
| ~0.66 | chain 2 GFIEQEKDVTKPQRPSLNQSIKTHNQSVPKREPKREEPQQQNTVSRHTSQPADDTLDIPAFLRNRNKRG [chain 2 T60A] |
| ~0.42 | chain 2 GFIEQEKDVTKPQRPSLNQSIKTHNQSVPKREPKREEPQQQNTVSRHTSQPADDTLDIPTFLRNANKRG [chain 2 R65A] |
| ~0.53 | chain 2 GFIEQEKDVTKPQRPSLNQSIKTHNQSVPKREPKREEPQQQNTVSRHTSQPADDTLAIPTFLRNRNKRG [chain 2 D57A] |
| ~0.46 | chain 2 GFIEQEKDVTKPQRPSLNQSIKTHNQSVPKREPKREEPQQQNTVSRHTSQPADDTLDIPTFLRNRNKAG [chain 2 R68A] |
| ~0.74 | chain 2 GFIEQEKDVTKPQRPSLNQSIKTHNQSVPKREPKREEPQQQNTVSRHTSQPADDTLDIPTFLRNRAKRG [chain 2 N66A] |
| ~0.51 | chain 2 GFIEQEKDVTKPQRPSLNQSIKTHNQSVPKREPKREEPQQQNTVSRHTSQPADDTLDIPTFLRNRNARG [chain 2 K67A] |
| ~0.69 | chain 2 GFIEQEKDVTKPQRPSLNQSIKTHNQSVPKREPKREEPQQQNTVSRHTSQPADDTLDIPTFLRNRNKRA [chain 2 G69A] |
| ~0.35 | chain 2 GFIEQEKDVTKPQRPSLNQSIKTHNQSVPKREPKREEPQQQNTVSRHTSQPADDTLDAPTFLRNRNKRG [chain 2 I58A] |

Source: PMC3418248 (2012)
